Results: patent publication US20050226864A1

Target: recombinant, GPI-linked human FcRn on the surface of NS0 cells (human) (UniProt P55899)
Test: competitive flow cytometry on NS0 cells with human FcRn, pH 6.0; competitor biotinylated TNF-RII/Fc-fusion protein

Chain of UniProt P55899 (P55899 24-297, chain 1 of 2): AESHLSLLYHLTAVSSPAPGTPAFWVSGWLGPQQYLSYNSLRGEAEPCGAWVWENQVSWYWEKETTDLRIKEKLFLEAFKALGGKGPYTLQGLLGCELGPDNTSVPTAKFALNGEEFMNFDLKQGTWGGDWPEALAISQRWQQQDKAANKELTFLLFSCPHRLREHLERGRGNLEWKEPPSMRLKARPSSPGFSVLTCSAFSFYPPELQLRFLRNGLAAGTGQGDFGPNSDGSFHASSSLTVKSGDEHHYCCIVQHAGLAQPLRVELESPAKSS
Chain of UniProt P55899 (b2m, as listed by the source, chain 2 of 2): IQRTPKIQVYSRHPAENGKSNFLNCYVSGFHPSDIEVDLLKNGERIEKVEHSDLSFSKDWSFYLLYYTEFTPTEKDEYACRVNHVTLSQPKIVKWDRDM

Substance “TNF-RII/Fc-fusion protein double mutant T250Q/M428L (Fc fusion)” has a fold better binding than the wild-type of 2 fold.
